Here are results for 13 sequences from a protein production outcome set (Wang et al. 2014).

The data set can be described thus: label from the status in PepcDB records.
Consider “MTLHEHTDEETAEHNLPSKSSGSTRRLALVAVVNFFGFVIELAGGLLFGSVALISDALHMLFDMLAYAMAFGASYTAERFEGGEAWSYGLHRLEPVAAFLNGVLLLPMVGYIVWESYQRFLEPVAINPELTLIIATGGLLVNIGSVYVLQGGEMSLNERGAFYHLLGDAGGSVAVIVSTAAVAVFDLPIADPVAAVLIGLLVLASAGNVLRESTSILLERSPVSSEELRDELTTLDGVDQIEDLHVWQVCSQLTVATVRLTDTSTTLEEQRRIQSRVHDYLTNRGIDHATVELVGRTDPDTDPVGTTNHSH”, for which the protein production entry is “failed”.
Turning to “MAVVASAPGKVLMTGGYLVLEKPNAGLVLSTNARFYAIVKPINEEVKPESWAWKWTDVKLTSPQLSRESMYKLSLNHLTLQSVSASDSRNPFVEHAIQYAIAAAHLATEKDKESLHKLLLQGLDITILGSNDFYSYRNQIESAGLPLTPESLGTLAPFASITFNAAESNGANSKPEVAKTGLGSSAAMTTAVVAALLHYLGVVDLSDPCKEGKFGCSDLDVIHMIAQTSHCLAQGKVGSGFDVSCAVYGSQRYVRFSPEVLSFAQVAVTGLPLNEVIGTILKGKWDNKRTEFSLPPLMNLFLGEPGSGGSSTPSMVGAVKKWQMSDPEKARENWQNLSDANLELETKLNDLSKLAKDHWDVYLRVIKSCSVLTSEKWVLHATEPINEAIIKELLEAREAMLRIRILMRQMGEAASVPIEPESQTQLLDSTMSAEGVLLAGVPGAGGFDAIFAITLGDSGTKLTQAWSSHNVLALLVREDPHGVCLESGDPRTTCITSGVSSIHLE”, the protein production entry is on record as “failed”.
“MTTIRRFSCNDLLRFTSVNLDHLTETFNMSFYMTYLARWPDYFHVAEGPGNRVMGYIMGKVEGQGESWHGHVTAVTVSPEYRRQQLAKKLMNLLEDISDKIDKAYFVDLFVRASNTPAIKMYEKLGYIIYRRVLRYYSGEEDGLDMRKALSRDVEKKSVIPLKRPITPDELEYD”: the protein production entry is “failed”.
As for “DLEPRERLHRILEQVLVFAGAMVAAAYTHSEDGDQLCLAESAGVPRSLYGLRDSYPLTGGTPAADVHRSGQPLWLTPEDLGRCADARRLPNGDFSLAVLPLGDGGCLAAVSERAGGFDADDRECLRLLAGSVA”, the protein production entry is given as “failed”.
As for “SGGTLRIYADSLKPNIPYKTILLSTTDTADFAVAESLEKYGLEKENPKDYCIARVMLPPGAQHSDERGAKEIILDDDECPLQIFREWPSDKGILVFQLKRRPP”, the protein production entry is “not failed”.
The value for “MNDISVSADRHAIERGSFNGNAKEYFGIWIVNILLTIMTLGIYSAWAKVRRKRYFNGNTLLAGRAFGYHATGGQIFKGRLIAFAFIVFSQLVGLIHPFLVFAPTILLLIFLPWVITRSIRFNARVTSYRNVRFDFVGTAWGAFVSILLGSFVALLSIGILAPLASRWANRYIVSNLHYGDRRFSTDPKIGALYRAWIIPALLVVVGGVLAVFLLIFLAMVLVQAAGIGSRELATAPENYEIVTLFGLGQILINLLVAMLIYGFASTVYKAGVRNVVVSSTLLDGKHELHSDLHRGRYLWIVFSNLIVTIFTFGLMRPWAAVREAQYAVERMGISFKGDMGEVLSSMEATGAAVSAEYMDMEGFEFGF” was “not failed”; that for “MDHHAQHHPRSHACVLPNGLRLHLAHDPAASRAAAWLRVAAGSHDEPSAHPGLAHFLEHLSFLGGAAFPGDERLMPWLQVRGGQVNASTLGKTTDYFFEVTAEHLGAGLARLIDMLARPLLDIDAQRREREVLEAEYLARSADEQTLIDAALALGLPAGHPLRRFAAGRRDSLALESDAFQRALREFHAAHYHAGNCQLWLQGPQTLDELERLAQRACADLPGRAPGASPPPPPLLPFACEALALRLPGPPRLVLGFALDALRGADEQTLLAFAELLGDRSPGGLLAALGEQGLGESVALRVVHRDARQALLALTFELFDGSAAAALEAAFFDWLGALRDDAASLLAARRPLLAEPTAPLERLRQRVLGLPAEIRPACLDALRADRCLRLHLDSELDGAEARWSAGFRLSVAPVAAAPPLAAQRHAWRFELPLPPSAAAEGALFLRWRFPGVPARSRFLALRQALRPLCGQARLGGVEMGLEALGEDWSLSLLGPRDRLEAAVRPALARLLAAPPDWRANGERLSSAERRRSATGLPIRQLLDALPGLLGEPLAEVDDWRRTRWDALVMQAAMPDPRWMPGQAAGERLEPLPPRPGRHRRELAVDGESALLLFCPLPTQEVPMEAAWRLLARLHEPAFQRRLRDELQLGYALFCGFREVGARRGLLFAAQSPRACPARLLEHMETFLQRSAEALAQLPARRLAGLRKALADDLRRAPGSFAERARRAWAEHLGGGAGRSRLLAEAALGLSGDDLLAAQARLLEARGGWWVLSSRR” was “failed”; that for “MRKNDIADISPRDPMLALVLLTRLPLPALPEAAFARQAAAVWAFPLAGLAVGALAWATGALALAAGLAPVAVAGLMLVVLVMTTGGMHEDGLADTADGLWGGFTPERRLEIMKDSHIGTYGVLALILSQGLRLAALSALVAGGALGAAVAAAVWSRALMPVLMAALPNARGTGLSQSVGRPTPQAVTLGLGLAAVLALLLAGWAVLIPALLAVLSVLGLAALARAKIGGQTGDILGAAQQLAEITCLLALSAAL” was “failed”.
Take “MKSAELKYLDFEDFTKLIALAKEKINPIYSSSFMIYIAAMTGMRFSELLGLTWDNVDFEKGQIYVKRTWDIYKNNFAPTKNDQSVRFLAIDSSTMQVMINYKEQQEKLLKRLEIEPEHPFVFYNIKNGLITNNSLNKQLRNMCKKLGFKKIITCHGLRHTHASTMLYKGINILYVSKRLGHSSLNVTMSVYSHILKLEHHHHHH”: the protein production result is “failed”.
The value for “MVTSTELTGQTAGVPDAGLVERALAYVREKADGEKPTTLPTGETVLSHAEGMLRILDGLRVDDAARAAACLFPMVAFVPGVEAHIEERFGEDVARLVKGVRQLLRIGAIATQAEAVETSKSQAAARQEQVEALRKMLLAFAQDIRVVLVRLASRLQTLRWLAQTKSQPLPGVARETLDIYAPLANRLGIWQMKWELEDLAFRFEQPETYKRIAKLLDEKRIEREGYISQAIARLQSELAAAGIRAEVTGRPKHIYSIWKKMRGKALDFADLYDVRAFRVIVDDIKDCYTVLGIVHHIWQPIPREFDDYISRPKANGYKSLHTVVIGDDGRAFEVQIRTHEMHHFAEYGVAAHWRYKEAGGKGYSGQFTADNSYDEKIAWLRQLLAWKDDADHTVTHEDSPWEQLKHAAIDDHIYVLTPQARVVALPQGATPVDFAYYLHSDLGHRCRGARVDGAMVPLNTPLKNGQTVEIVAVKQGGPSRDWLNPELGYLASSRARAKVRAWFNALDSQETIAQGRALIEKTLQREGKTAVNLDDLATRLNFKTPDDLFAAVAKEEFSLRHVEQALRHPDGEVQPQFSEEEAVTKKSRATSVARGAKSGVLVVGVDSLMTQMSRCCKPAPPDDIVGFVTRGRGVSIHRRNCHTFQQLSTRDPERVIQTEWGKRSDAVYPVDIQVEAIDRQGLLRDISEVLSREKINVTGVKTLSSKGVARMQFTAEVAEATQLQRAISLIEEVQGVLHAKRK” was “failed”; that for “MITGKRFKFILLTFIFAAGLFFTQAGILFAQDKPDALKLYRQGRSLDSIGRREDARAAYLSAIEICRNELKVNSKNMDSYAVYTWCLFRLGRYKDTELVCSDALKIGRDARIIETLAEAQFFLGNYKDSLRNMEMYIEMAPNGERISVAHFFVGEIYRNTKKYHKADIAYSISVHLEPSNSLWWYRLGIVREAAGEKEGAIAAYQTAVKLRPEFKEAAEALKRVKI” was “failed”.
“MNREELFDVTVIGGGPAGLYSAFYSGLREMKTKIIEFQPQLGGKIHVYPEKMIWDIGGLLPVTGEKLIEQLVQQGLTFQPEVVLNTKIESIIRNKDGIFTLKTSTGEEHFSKTVIVATGSGILNPQKLSIEGAERFEVSNLNYTVKSLKRFKNKTVIISGGGNSAIDWANELEPIAKKVYLTYRKEELSGHEAQVKQLMNSSAECFFNTSITTLIAGDNHEAIEYVELTNHETGEVSQLAIDEVIINHGYERDITLLENSELDVAIIDNYYIAGNANSESSVDGLYAAGDILKHEGKLHLIAGAFQDAGNAVNKAKQFIQPDASEYGMVSSHNEVFKKRNRELIKQMMK”: the protein production entry was “failed”.
On to “MIDWPLAELLPHAGDMILIDQVLAFDEEQIRTRLEVRPGGLFNRPDGSLPAWVGVELMAQSVAAYAGCRARQQGLPVELGFLLGTRKFECNVEHFPLGSTLEIHALRSLEDDNGMGVFECHLSGPGITASARLNVFRPPQAADYLHETPASSTGTPS”, for which the protein production result is recorded as “failed”.
